This is an account of results in article PMC5650531.

The assay has as its target His6-CCCP-1 (C. elegans CCCP-1, full length) (C. elegans). Briefly: SEC-MALS.

In turn, “His6-CCCP-1 (C. elegans CCCP-1, full length) (natural protein)” gave a stoichiometry N of 2.
